Consider 14 molecules from patent publication US20210079060A1 (ALETA BIOTHERAPEUTICS, published 2021).

A word on the EC50: it is the concentration that produces a half-maximal response. Lower therefore signals an effect from little substance.

Substitutions are numbered along the chain they refer to. Where “and” joins values, the source holds several entries; their conditions need not be identical. Equal entries are not always repeated.

B1: CD19 ECD N term mutant#1-EGFR Fn3 (designed binder)
chain: PEEPLVVKVEEGDDAWLRCLKGTSDGPTSQVTWSRESPLKPFLKYSLGVPGLGVHIRPLAIGLVIPNVSQQMGGFYLCQPGPPSEKAWQPGWTVNVEGSGELFRWNVSDLGGLGCGLKNRSSEGPSSPSGKLMSPKLYVWAKDRPEIWEGEPPCLPPRDSLNQSLSQDLTMAPGSTLWLSCGVPPDSVSRGPLSWTHVHPKGPKSLLSLELKDDRPAREMIVDETGLLLPRATAQDAGKYYCHRGNRTISYHLEITARPVSAHTPLRTGGWKGGGGSGGGGSGGGGSGGGGSVSDVPRDLEVVAATPTSLLISWFDYAVTYYRITYGETGGNSPVQEFTVPGWISTATISGLKPGVDYTITVYAVTDNSHWPFRSTPISTNYRTEIDKPPQHHHHHH
notes: also called construct #227; CD19-Fn3/EGFR
B2: CD19 ECD N term mutant#2-EGFR Fn3 (designed binder)
chain: PEEPLVVKVEEGDTAVLPCLKGTSDGPTQQLTWSRESPLKPFLKYSLGVPGLGVHVRPDAISVVIRNVSQQMGGFYLCQPGPPSEKAWQPGWTVNVEGSGELFRWNVSDLGGLGCGLKNRSSEGPSSPSGKLMSPKLYVWAKDRPEIWEGEPPCLPPRDSLNQSLSQDLTMAPGSTLWLSCGVPPDSVSRGPLSWTHVHPKGPKSLLSLELKDDRPAREMIVDETGLLLPRATAQDAGKWYCSRGNVTTSYHLEITARPVKAHSDLRTGGWKGGGGSGGGGSGGGGSGGGGSVSDVPRDLEVVAATPTSLLISWFDYAVTYYRITYGETGGNSPVQEFTVPGWISTATISGLKPGVDYTITVYAVTDNSHWPFRSTPISTNYRTEIDKPPQHHHHHH
notes: Fusion protein; also called CD19-Fn3/EGFR
B3: CD19 mutant #2-G4Sx4-anti CLEC12a VHH 1G6-myc-His (VHH)
chain: PEEPLVVKVEEGDTAVLPCLKGTSDGPTQQLTWSRESPLKPFLKYSLGVPGLGVHVRPDAISVVIRNVSQQMGGFYLCQPGPPSEKAWQPGWTVNVEGSGELFRWNVSDLGGLGCGLKNRSSEGPSSPSGKLMSPKLYVWAKDRPEIWEGEPPCLPPRDSLNQSLSQDLTMAPGSTLWLSCGVPPDSVSRGPLSWTHVHPKGPKSLLSLELKDDRPAREMIVDETGLLLPRATAQDAGKWYCSRGNVTTSYHLEITARPVKAHSDLRTGGWKGGGGSGGGGSGGGGSGGGGSQVQLQQSGGGLVQAGGSLRLSCAASGSIFAINEINLMGWYRQAPGKQRELVAACASDGNTYYADSVKGRFTISRDNAEKTVYLQMNNLKPDDTAVYYCDANSRGNYYSGQGTQVTVSSTSGPGGQGAEQKLISEEDLGAHHHHHHGAS
notes: CD19 variant-VHH fusion
B4: CD19 mutant #2-G4Sx4-anti CLEC12a VHH 2F5-myc-His (VHH)
chain: B3 chain with V304A, A306T, R311I
notes: CD19 variant-VHH fusion
B5: CD19 mutant #2-G4Sx4-anti CLEC12a VHH 2F3-myc-His (VHH)
chain: PEEPLVVKVEEGDTAVLPCLKGTSDGPTQQLTWSRESPLKPFLKYSLGVPGLGVHVRPDAISVVIRNVSQQMGGFYLCQPGPPSEKAWQPGWTVNVEGSGELFRWNVSDLGGLGCGLKNRSSEGPSSPSGKLMSPKLYVWAKDRPEIWEGEPPCLPPRDSLNQSLSQDLTMAPGSTLWLSCGVPPDSVSRGPLSWTHVHPKGPKSLLSLELKDDRPAREMIVDETGLLLPRATAQDAGKWYCSRGNVTTSYHLEITARPVKAHSDLRTGGWKGGGGSGGGGSGGGGSGGGGSQVQLQAFGGGLVQPGGSLRLSCVVSGTMFSGKDVNWLRQAPGKHVEVVATVSSDGGTDYADFVKGRFTISRDDAKNTVNLQMNSLEPEDTANYMCHFLWGRHYWGQGTQVTVSSTSGPGGQGAEQKLISEEDLGAHHHHHHGAS
notes: CD19 variant-VHH fusion
B6: CD19 mutant #2-G4Sx4-anti CLEC12a VHH 2H3-myc-His (VHH)
chain: PEEPLVVKVEEGDTAVLPCLKGTSDGPTQQLTWSRESPLKPFLKYSLGVPGLGVHVRPDAISVVIRNVSQQMGGFYLCQPGPPSEKAWQPGWTVNVEGSGELFRWNVSDLGGLGCGLKNRSSEGPSSPSGKLMSPKLYVWAKDRPEIWEGEPPCLPPRDSLNQSLSQDLTMAPGSTLWLSCGVPPDSVSRGPLSWTHVHPKGPKSLLSLELKDDRPAREMIVDETGLLLPRATAQDAGKWYCSRGNVTTSYHLEITARPVKAHSDLRTGGWKGGGGSGGGGSGGGGSGGGGSQVQLQESGGGLVQAGGSLRLSCVASGSIRSINVMGWYRQAPGKQRELVAACASDGNTYYADSVKGRFTISRDNAEKTVYLQMNNLKPDDTAVYYCDANSRGNYYSGQGTQVTVSSTSGPGGQGAEQKLISEEDLGAHHHHHHGAS
notes: CD19 variant-VHH fusion
B7: anti-CLEC12a VHH 1B12-G4Sx4-CD19 D1+2 C term mutant #2-His (VHH)
VHH: QVQLQASGGGLVQAGGSLRLSCAASGSIFAINEINLMGWYRQAPGKQRELVAACASDGNTYYADSVKGRFTISRDNAEKTVYLQMNNLKPDDTAVYYCDANSRGNYYSGQGTQVTVSS
B8: anti-CLEC12a VHH 1B1-G4Sx4-CD19 D1+2 C term mutant #2-His (VHH)
VHH: B7 VHH with A6E
B9: #329 (VHH)
VHH: B7 VHH with A6Q, V12A, A14T, R19I
notes: also called anti CLEC12a VHH 2F5-G4Sx4-CD19 C-term mutant #2-His
B10: anti-CLEC12a VHH 1A10-CD19 D1+2 C term mutant #2 (VHH)
VHH: QVQLQESGGGLVQVGESLRLSCVVSGDTRSINLMGWYRQAPGKQRELVAACASDGNTYYADSVKGRFTISRDNAEKTVYLQMNNLKPDDTAVYYCDANSRGNYYSGQGTLVTVSS
B11: #290 (VHH)
fusion protein, single chain: PEEPLVVKVEEGDTAVLPCLKGTSDGPTQQLTWSRESPLKPFLKYSLGVPGLGVHVRPDAISVVIRNVSQQMGGFYLCQPGPPSEKAWQPGWTVNVEGSGELFRWNVSDLGGLGCGLKNRSSEGPSSPSGKLMSPKLYVWAKDRPEIWEGEPPCLPPRDSLNQSLSQDLTMAPGSTLWLSCGVPPDSVSRGPLSWTHVHPKGPKSLLSLELKDDRPAREMIVDETGLLLPRATAQDAGKWYCSRGNVTTSYHLEITARPVKAHSDLRTGGWKGGGGSGGGGSGGGGSGGGGSQVQLQESGGGLVQPGGSLRLSCAASGFTFNSYAMTWVRQAPGKGLEWVSDINSGGGSTNYADSVKGRFTISRDNAKNTLYLQMNSLKPEDTAVYYCATELRGSDYYRGPIREYAYWGQGTLVTVSSTSGPGGQGAEQKLISEEDLGAHHHHHHGAS
notes: also called construct #290; CD19 mutant #2-G4Sx4-anti CLEC12a VHH 1H1-His
B12: #335 (VHH)
fusion protein, single chain: B3 chain with Q297V, Q298E, Q405L
notes: also called CD19 mutant #2-G4Sx4-anti CLEC12a VHH 2C8-His
B13: #334 (VHH)
fusion protein, single chain: B3 chain with Q298E
notes: also called CD19 mutant #2-G4Sx4-anti CLEC12a VHH 1B1-His
B14: #333 (VHH)
fusion protein, single chain: B6 chain with A306V, G308E, A316V, S319D, I320T, V325L, Q402L
notes: also called CD19 mutant #2-G4Sx4-anti CLEC12a VHH 1A10-His

The first test addresses T1, EGFR (UniProt P00533 25-1210, limits assumed).
T1 construct: whole, on cells; also called EGFR positive cells; EGFR positive H292 cells
Kind of test: binding to EGFR positive cells (data not shown).
As to B1, the binding result was “binds”.

Turning to B2, the binding result is listed as “binds”.

The next test concerns the target T2, Clec12A (human, UniProt Q5QGZ9 1-265).
T2 construct: whole, on cells; also called CLL-1; MICL
T2 sequence (looked up): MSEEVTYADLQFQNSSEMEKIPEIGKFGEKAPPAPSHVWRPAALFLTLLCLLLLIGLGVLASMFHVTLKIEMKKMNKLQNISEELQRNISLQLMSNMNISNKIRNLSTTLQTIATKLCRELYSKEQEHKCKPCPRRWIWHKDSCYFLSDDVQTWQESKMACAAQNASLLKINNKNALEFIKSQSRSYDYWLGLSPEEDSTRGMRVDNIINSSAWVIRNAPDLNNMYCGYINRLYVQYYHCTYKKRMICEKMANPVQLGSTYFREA
Briefly: binding to U937 cells; supernatant; MW = 46kDa.
B3 had an EC50 of 3.4 nM.

Take B4: the concentration for a half-maximal effect (EC50) came out at 3.29 nM.

On to B5, for which it took 3.76 nM to reach a half-maximal effect (EC50).

With B6, a half-maximal response (EC50) required 4.87 nM.

In a further test the target is T2, Clec12A. Kind of test: sandwich ELISA: coated with FMC63, construct titrated (x-axis ug/ml), followed by Clec12A-bio, detected by HRP-SA. (ELISA stands for enzyme-linked immunosorbent assay.)
As to B7, the “C of the 4-P fit (midpoint)” value was 0.015 µg/mL; the EC50 was 0.015 µg/mL and 0.323 nM.

As for B8, the “C of the 4-P fit (midpoint)” value was 0.00648 µg/mL; the half-maximal effective concentration (EC50) was 0.0065 µg/mL and 0.14 nM.

For the molecule B9, the “C of the 4-P fit (midpoint)” value stood at 0.0107 µg/mL; the EC50 was 0.0107 µg/mL and 0.23 nM.

On to B10, for which the “C of the 4-P fit (midpoint)” value was determined as 0.00751 µg/mL; the 50% effective concentration (EC50) is 0.0075 µg/mL and 0.161 nM.

The target of a further test is T2, Clec12A. Described as above. This is another data set of the same source.
For the molecule B11, the “C of the 4-P fit (midpoint)” value was found to be 0.037 µg/mL; the concentration for a half-maximal effect (EC50) was 0.037 µg/mL and 0.796 nM.

For the molecule B3, the “C of the 4-P fit (midpoint)” value was 0.0113 µg/mL; the EC50 was 0.0113 µg/mL and 0.243 nM.

For the molecule B12, the “C of the 4-P fit (midpoint)” value was 0.0108 µg/mL; the concentration giving a half-maximal response (EC50) was 0.0108 µg/mL and 0.232 nM.

With B13, the “C of the 4-P fit (midpoint)” value worked out at 0.0112 µg/mL; the EC50 was 0.0112 µg/mL and 0.241 nM.

As for B4, the “C of the 4-P fit (midpoint)” value came to 0.00983 µg/mL; the half-maximal effective concentration (EC50) was 0.0098 µg/mL and 0.21 nM.

Turning to B6, the “C of the 4-P fit (midpoint)” value came out at 0.0201 µg/mL; the 50% effective concentration (EC50) is 0.0201 µg/mL and 0.432 nM.

In the case of B14, the “C of the 4-P fit (midpoint)” value is 0.0106 µg/mL; the concentration for a half-maximal effect (EC50) was 0.0106 µg/mL and 0.228 nM.

The next test addresses T2, Clec12A. Kind of test: binding to U937 cells; supernatant.
In the case of B3, the concentration for a half-maximal effect (EC50) turned out to be 0.157 µg/mL.

On to B4, for which the EC50 was determined as 0.151 µg/mL.

Regarding B5, the EC50 is 0.173 µg/mL.

For B6, the concentration for a half-maximal effect (EC50) amounted to 0.224 µg/mL.
